# Tests used:
# [1] = biological target: human pro B-type natriuretic peptide (HyTest, Turku, Finland; Catalog No. 8PRO8) (human); assay: sandwich CMIA, capture 15F11, analyte 86.6 pM
# [2] = biological target: glycosylated human proBNP (HyTest, Turku, Finland; Catalog No. 8GOB2) (human); assay: sandwich CMIA, capture 15F11, analyte 86.6 pM
# [3] = biological target: human NT-pro B-type natriuretic peptide (HyTest, Turku, Finland; Catalog No. 8NT1) (human); assay: sandwich CMIA, capture 15F11, analyte 86.6 pM
# Sequence of human NT-pro B-type natriuretic peptide (HyTest, Turku, Finland; Catalog No. 8NT1) (human) (chain, as listed by the source): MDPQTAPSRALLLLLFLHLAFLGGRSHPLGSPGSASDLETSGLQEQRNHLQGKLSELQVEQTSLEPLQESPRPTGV
# [4] = biological target: human pro B-type natriuretic peptide (HyTest, Turku, Finland; Catalog No. 8PRO8) (human); assay: sandwich CMIA, capture 15C4, analyte 86.6 pM
# [5] = biological target: glycosylated human proBNP (HyTest, Turku, Finland; Catalog No. 8GOB2) (human); assay: sandwich CMIA, capture 15C4, analyte 86.6 pM
# [6] = biological target: human NT-pro B-type natriuretic peptide (HyTest, Turku, Finland; Catalog No. 8NT1) (human); assay: sandwich CMIA, capture 15C4, analyte 86.6 pM
# [7] = biological target: human pro B-type natriuretic peptide (HyTest, Turku, Finland; Catalog No. 8PRO8) (human); assay: sandwich CMIA, capture 15C4, analyte 288.7 pM
# [8] = biological target: glycosylated human proBNP (HyTest, Turku, Finland; Catalog No. 8GOB2) (human); assay: sandwich CMIA, capture 15C4, analyte 288.7 pM
# [9] = biological target: human NT-pro B-type natriuretic peptide (HyTest, Turku, Finland; Catalog No. 8NT1) (human); assay: sandwich CMIA, capture 15C4, analyte 288.7 pM
# [10] = biological target: human pro B-type natriuretic peptide (HyTest, Turku, Finland; Catalog No. 8PRO8) (human); assay: sandwich CMIA, capture 15F11, analyte 577.4 pM
# [11] = biological target: glycosylated human proBNP (HyTest, Turku, Finland; Catalog No. 8GOB2) (human); assay: sandwich CMIA, capture 15F11, analyte 577.4 pM
# [12] = biological target: human NT-pro B-type natriuretic peptide (HyTest, Turku, Finland; Catalog No. 8NT1) (human); assay: sandwich CMIA, capture 15F11, analyte 577.4 pM
# [13] = biological target: human pro B-type natriuretic peptide (HyTest, Turku, Finland; Catalog No. 8PRO8) (human); assay: sandwich CMIA, capture 15C4, 577.4 pM, against human NT-proBNP
# [14] = biological target: glycosylated human proBNP (HyTest, Turku, Finland; Catalog No. 8GOB2) (human); assay: as above
# [15] = biological target: human pro B-type natriuretic peptide (HyTest, Turku, Finland; Catalog No. 8PRO8) (human); assay: sandwich CMIA, capture 15F11, analyte 0.0 pM (blank)
# [16] = biological target: glycosylated human proBNP (HyTest, Turku, Finland; Catalog No. 8GOB2) (human); assay: as above
# [17] = biological target: human NT-pro B-type natriuretic peptide (HyTest, Turku, Finland; Catalog No. 8NT1) (human); assay: as above
# [18] = biological target: human pro B-type natriuretic peptide (HyTest, Turku, Finland; Catalog No. 8PRO8) (human); assay: sandwich CMIA, capture 15F11, analyte 288.7 pM
# [19] = biological target: glycosylated human proBNP (HyTest, Turku, Finland; Catalog No. 8GOB2) (human); assay: sandwich CMIA, capture 15F11, analyte 288.7 pM
# [20] = biological target: human NT-pro B-type natriuretic peptide (HyTest, Turku, Finland; Catalog No. 8NT1) (human); assay: sandwich CMIA, capture 15F11, analyte 288.7 pM
# [21] = biological target: human pro B-type natriuretic peptide (HyTest, Turku, Finland; Catalog No. 8PRO8) (human); assay: sandwich CMIA, capture 15C4, 86.6 pM, against human NT-proBNP
# [22] = biological target: glycosylated human proBNP (HyTest, Turku, Finland; Catalog No. 8GOB2) (human); assay: as above
# [23] = biological target: human pro B-type natriuretic peptide (HyTest, Turku, Finland; Catalog No. 8PRO8) (human); assay: sandwich CMIA, capture 15C4, analyte 577.4 pM
# [24] = biological target: glycosylated human proBNP (HyTest, Turku, Finland; Catalog No. 8GOB2) (human); assay: sandwich CMIA, capture 15C4, analyte 577.4 pM
# [25] = biological target: human NT-pro B-type natriuretic peptide (HyTest, Turku, Finland; Catalog No. 8NT1) (human); assay: sandwich CMIA, capture 15C4, analyte 577.4 pM
# [26] = biological target: human pro B-type natriuretic peptide (HyTest, Turku, Finland; Catalog No. 8PRO8) (human); assay: sandwich CMIA, capture 15C4, analyte 0.0 pM (blank)
# [27] = biological target: glycosylated human proBNP (HyTest, Turku, Finland; Catalog No. 8GOB2) (human); assay: as above
# [28] = biological target: human NT-pro B-type natriuretic peptide (HyTest, Turku, Finland; Catalog No. 8NT1) (human); assay: as above
# [29] = biological target: human pro B-type natriuretic peptide (HyTest, Turku, Finland; Catalog No. 8PRO8) (human); assay: sandwich CMIA, capture 15C4, 43.3 pM, against human NT-proBNP
# [30] = biological target: glycosylated human proBNP (HyTest, Turku, Finland; Catalog No. 8GOB2) (human); assay: as above
# [31] = biological target: human pro B-type natriuretic peptide (HyTest, Turku, Finland; Catalog No. 8PRO8) (human); assay: sandwich CMIA, 15C4 (63-71) with 13G12 (13-20), against human NT-proBNP
# [32] = biological target: human pro B-type natriuretic peptide (HyTest, Turku, Finland; Catalog No. 8PRO8) (human); assay: sandwich CMIA, capture 15F11, analyte 43.3 pM
# [33] = biological target: glycosylated human proBNP (HyTest, Turku, Finland; Catalog No. 8GOB2) (human); assay: sandwich CMIA, capture 15F11, analyte 43.3 pM
# [34] = biological target: human NT-pro B-type natriuretic peptide (HyTest, Turku, Finland; Catalog No. 8NT1) (human); assay: sandwich CMIA, capture 15F11, analyte 43.3 pM
# [35] = biological target: human pro B-type natriuretic peptide (HyTest, Turku, Finland; Catalog No. 8PRO8) (human); assay: sandwich CMIA, capture 15C4, 288.7 pM, against human NT-proBNP
# [36] = biological target: glycosylated human proBNP (HyTest, Turku, Finland; Catalog No. 8GOB2) (human); assay: as above
# [37] = biological target: human pro B-type natriuretic peptide (HyTest, Turku, Finland; Catalog No. 8PRO8) (human); assay: sandwich CMIA, capture 15C4, analyte 43.3 pM
# [38] = biological target: glycosylated human proBNP (HyTest, Turku, Finland; Catalog No. 8GOB2) (human); assay: sandwich CMIA, capture 15C4, analyte 43.3 pM
# [39] = biological target: human NT-pro B-type natriuretic peptide (HyTest, Turku, Finland; Catalog No. 8NT1) (human); assay: sandwich CMIA, capture 15C4, analyte 43.3 pM
# [40] = biological target: human pro B-type natriuretic peptide (HyTest, Turku, Finland; Catalog No. 8PRO8) (human); assay: sandwich CMIA, 15C4 (63-71) with 18H5 (13-20), against human NT-proBNP
# [41] = biological target: human pro B-type natriuretic peptide (HyTest, Turku, Finland; Catalog No. 8PRO8) (human); assay: sandwich CMIA, 15C4 (63-71) with 16F3 (13-20), against human NT-proBNP
# Sequence of glycosylated human proBNP (HyTest, Turku, Finland; Catalog No. 8GOB2) (human) (chain, as listed by the source): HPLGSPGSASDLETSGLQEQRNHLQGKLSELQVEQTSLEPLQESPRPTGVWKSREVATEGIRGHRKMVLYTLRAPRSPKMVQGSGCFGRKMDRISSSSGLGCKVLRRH
Substance,Analyte rlus [1] [rlus],Analyte rlus [2] [rlus],Analyte rlus [3] [rlus],Analyte rlus [4] [rlus],Analyte rlus [5] [rlus],Analyte rlus [6] [rlus],Analyte rlus [8] [rlus],Analyte rlus [9] [rlus],Analyte rlus [10] [rlus],Analyte rlus [11] [rlus],Analyte rlus [12] [rlus],% Cross-reactivity [13] [%],% Cross-reactivity [14] [%],Analyte rlus [15] [rlus],Analyte rlus [16] [rlus],Analyte rlus [17] [rlus],Analyte rlus [18] [rlus],Analyte rlus [19] [rlus],Analyte rlus [20] [rlus],% Cross-reactivity [21] [%],also measured
"anti-human NT-proBNP/anti-human proBNP labeled monoclonal antibody 13G12 (HyTest, Turku, Finland)",802,767,761,4080,912,25600,967,131000,1080,778,805,11.8,0.1,841,841,841,920,831,820,12.9,Analyte rlus [7]: 16700 rlus; % Cross-reactivity [22]: 0.1%; Analyte rlus [23]: 37200 rlus; Analyte rlus [24]: 1240 rlus; Analyte rlus [25]: 309000 rlus; Analyte rlus [26]: 892 rlus; Analyte rlus [27]: 892 rlus; Analyte rlus [28]: 892 rlus; % Cross-reactivity [29]: 14.1%; % Cross-reactivity [30]: 0.1%; % Cross-reactivity [31]: 10%; Analyte rlus [32]: 800 rlus; Analyte rlus [33]: 798 rlus; Analyte rlus [34]: 777 rlus; % Cross-reactivity [35]: 12.1%; % Cross-reactivity [36]: 0.1%; Analyte rlus [37]: 2220 rlus; Analyte rlus [38]: 905 rlus; Analyte rlus [39]: 10300 rlus
"anti-human NT-proBNP/anti-human proBNP labeled monoclonal antibody 18H5 (HyTest, Turku, Finland)",664,737,636,6590,783,39100,1230,162000,1440,754,664,13.6,0.3,626,626,626,949,663,708,15.3,% Cross-reactivity [22]: 0.2%; Analyte rlus [23]: 46500 rlus; Analyte rlus [24]: 1580 rlus; Analyte rlus [25]: 337000 rlus; Analyte rlus [26]: 704 rlus; Analyte rlus [27]: 704 rlus; Analyte rlus [28]: 704 rlus; % Cross-reactivity [29]: 15.5%; % Cross-reactivity [30]: 0.3%; Analyte rlus [32]: 628 rlus; Analyte rlus [33]: 618 rlus; Analyte rlus [34]: 621 rlus; % Cross-reactivity [36]: 0.3%; % Cross-reactivity [40]: 10%; Analyte rlus [37]: 3380 rlus; Analyte rlus [38]: 756 rlus; Analyte rlus [39]: 18000 rlus
"anti-human NT-proBNP/anti-human proBNP labeled monoclonal antibody 16F3 (HyTest, Turku, Finland)",621,587,592,4060,861,26500,827,140000,914,635,631,10.6,0,640,640,640,720,643,696,11.9,Analyte rlus [7]: 13700 rlus; % Cross-reactivity [41]: 10%; % Cross-reactivity [22]: -0.7%; Analyte rlus [23]: 34700 rlus; Analyte rlus [24]: 1090 rlus; Analyte rlus [25]: 320000 rlus; Analyte rlus [26]: 1040 rlus; Analyte rlus [27]: 1040 rlus; Analyte rlus [28]: 1040 rlus; % Cross-reactivity [29]: 9.2%; % Cross-reactivity [30]: -3.3%; Analyte rlus [32]: 624 rlus; Analyte rlus [33]: 586 rlus; Analyte rlus [34]: 630 rlus; % Cross-reactivity [35]: 9.1%; % Cross-reactivity [36]: -0.2%; Analyte rlus [37]: 1990 rlus; Analyte rlus [38]: 691 rlus; Analyte rlus [39]: 11400 rlus

# From patent US20120122239A1
